From patent US20060198852A1
Where two headings read alike, the source gives them in different places.

Assays:
[1] = biological target: bovine type I collagen (bovine) (UniProt P02453)
[2] = biological target: bovine type I collagen (bovine) (UniProt P02453); assay: SPR, BIAcore 3000, collagen immobilized on CM5 chip
[3] = biological target: bovine type I collagen (bovine) (UniProt P02453); assay: SPR, from the kinetic rates ka and kd; SPR, from ka and kd
[4] = biological target: bovine type I collagen (bovine) (UniProt P02453); assay: SPR, equilibrium responses, one-site-binding nonlinear regression
[5] = biological target: bovine type I collagen (bovine) (UniProt P02453); assay: SPR, Scatchard analysis of equilibrium responses; SPR, Scatchard analysis
[6] = biological target: bovine type I collagen (bovine) (UniProt P02453); remark: listed apart in the source

Sequence of UniProt P02453 (P02453 162-1217 limits assumed, chain 1 of 2): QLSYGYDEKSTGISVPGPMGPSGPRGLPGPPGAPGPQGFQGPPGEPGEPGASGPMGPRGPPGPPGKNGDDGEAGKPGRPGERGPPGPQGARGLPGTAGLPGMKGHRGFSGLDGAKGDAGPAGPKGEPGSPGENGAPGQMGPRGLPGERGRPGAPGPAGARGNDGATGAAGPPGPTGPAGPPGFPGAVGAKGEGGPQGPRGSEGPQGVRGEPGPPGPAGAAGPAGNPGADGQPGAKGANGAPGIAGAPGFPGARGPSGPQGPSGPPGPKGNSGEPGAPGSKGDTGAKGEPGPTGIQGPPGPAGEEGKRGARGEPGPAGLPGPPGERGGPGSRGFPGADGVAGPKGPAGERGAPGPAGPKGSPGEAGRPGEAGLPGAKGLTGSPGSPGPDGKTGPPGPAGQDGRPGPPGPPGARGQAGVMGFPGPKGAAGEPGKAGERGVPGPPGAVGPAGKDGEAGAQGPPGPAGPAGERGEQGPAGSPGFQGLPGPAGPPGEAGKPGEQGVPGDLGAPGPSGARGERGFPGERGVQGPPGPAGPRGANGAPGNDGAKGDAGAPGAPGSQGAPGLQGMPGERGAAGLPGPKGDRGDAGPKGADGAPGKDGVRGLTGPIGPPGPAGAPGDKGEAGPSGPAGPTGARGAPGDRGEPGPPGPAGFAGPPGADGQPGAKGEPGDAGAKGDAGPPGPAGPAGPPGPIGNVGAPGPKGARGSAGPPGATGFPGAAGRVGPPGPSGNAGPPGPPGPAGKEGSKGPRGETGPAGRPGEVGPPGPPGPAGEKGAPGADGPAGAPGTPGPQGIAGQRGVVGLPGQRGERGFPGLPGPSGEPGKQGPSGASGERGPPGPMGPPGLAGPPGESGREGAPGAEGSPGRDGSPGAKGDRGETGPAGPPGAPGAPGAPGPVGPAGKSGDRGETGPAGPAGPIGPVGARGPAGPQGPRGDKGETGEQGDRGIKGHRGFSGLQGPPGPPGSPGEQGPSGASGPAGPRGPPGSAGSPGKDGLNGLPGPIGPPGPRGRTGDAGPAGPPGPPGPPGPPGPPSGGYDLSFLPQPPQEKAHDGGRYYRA
Sequence of UniProt P02453 (P02465 80-1117 limits assumed, chain 2 of 2, further chain): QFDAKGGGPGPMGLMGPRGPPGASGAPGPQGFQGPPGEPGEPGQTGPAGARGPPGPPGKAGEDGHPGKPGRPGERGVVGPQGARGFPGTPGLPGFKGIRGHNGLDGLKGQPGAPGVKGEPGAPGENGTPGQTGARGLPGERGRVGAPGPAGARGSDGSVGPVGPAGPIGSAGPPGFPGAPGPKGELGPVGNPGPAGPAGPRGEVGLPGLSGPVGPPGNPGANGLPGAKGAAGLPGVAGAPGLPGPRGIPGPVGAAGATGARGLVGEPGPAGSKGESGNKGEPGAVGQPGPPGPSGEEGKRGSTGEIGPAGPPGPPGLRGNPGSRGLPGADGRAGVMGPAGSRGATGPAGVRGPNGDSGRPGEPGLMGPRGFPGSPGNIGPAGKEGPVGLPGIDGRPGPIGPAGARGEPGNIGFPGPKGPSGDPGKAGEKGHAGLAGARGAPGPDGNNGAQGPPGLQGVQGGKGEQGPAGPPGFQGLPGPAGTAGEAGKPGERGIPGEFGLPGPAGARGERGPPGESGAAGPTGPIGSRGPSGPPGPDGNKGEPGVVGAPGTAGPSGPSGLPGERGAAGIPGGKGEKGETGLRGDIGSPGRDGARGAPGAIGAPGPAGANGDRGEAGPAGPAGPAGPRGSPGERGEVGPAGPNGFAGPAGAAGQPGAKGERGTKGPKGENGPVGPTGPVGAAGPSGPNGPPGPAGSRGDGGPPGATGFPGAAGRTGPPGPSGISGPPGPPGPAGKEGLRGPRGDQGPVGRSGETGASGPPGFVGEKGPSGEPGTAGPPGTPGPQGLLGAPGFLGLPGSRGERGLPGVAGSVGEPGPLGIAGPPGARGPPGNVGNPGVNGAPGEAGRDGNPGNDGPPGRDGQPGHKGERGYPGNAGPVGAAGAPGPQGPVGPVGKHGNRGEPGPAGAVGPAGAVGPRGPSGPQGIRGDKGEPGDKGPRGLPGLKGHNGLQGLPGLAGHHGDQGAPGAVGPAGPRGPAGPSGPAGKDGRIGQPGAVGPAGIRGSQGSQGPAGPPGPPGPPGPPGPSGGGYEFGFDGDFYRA

Substance	Kd [1]	koff [2]	kon [2]	Kd [3]	Kd [4]	Kd [5]	Kd [6]
rBA0871A, recombinant His-tag fusion protein of the A region (amino acid residues 42-765) of BA0871	190 nM	0.0043 s⁻¹	2800 M⁻¹ s⁻¹	1600 nM	3200 nM	2400 nM	–
rBA5258A, recombinant His-tag fusion protein of the A region (amino acid residues 32-366) of BA5258	30 nM	–	–	–	900 nM	–	600 nM
